Experimental findings from patent publication US20230257444A1, “FUSION PROTEIN AND COMBINATIONS THEREOF” (Agency for Science, Technology and Research, priority 2020, published 2023) are described below.

Data set [1] has as its system SC5314 Candida albicans. The experiment in a line: In vitro co-culture CFU assay of human primary immune cells against Candida albicans. It is filed as cell-based. The settings on record: 1 hr; for fungicidal activity (CFU): absence or presence of hDectin1-Fc; for reduction in CFU: between hDectin1-Fc 0 μg/ml and 1000 µg/ml, 37° C. As to the method: Macrophage assay: Human peripheral blood CD14+ monocytes were cultured at 1×10^6 cells/mL in 5 mL of ImmunoCult™-SF Macrophage Differentiation Medium with Human Recombinant M-CSF at 50 ng/ml in a T-25 flask at 37° C. in a 5% CO2 incubator. On Day 4, 2.5 mL of fresh ImmunoCult™-SF Macrophage Differentiation Medium was added to the flask. On Day 6, M1 activation was initiated with the addition of 50 ng/mL IFN-γ. On Day 8, the macrophages were treated with ACCUTASE and scrapped from the flask. The cells were centrifuged and resuspended in RPMI medium with 10% FBS and seeded into Eppendorf 96 well plates at 10^5 cells/well.
NK cell assay: Human Peripheral Blood CD56+NK Cells 1×10^6 cells/mL in 5 mL of ImmunoCult™-XF T Cell Expansion Medium with Human Recombinant IL-2 at 500 IU/ml in a T-25 flask at 37° C. in a 5% CO2 incubator for 7 days. Additional fresh media was added on day 4. The cells were centrifuged and resuspended in RPMI medium with 10% FBS and seeded into Eppendorf 96 well plates at 10^5 cells/well.
Monocyte assay: Human peripheral blood CD14+ Monocytes were cultured at 1×10^6 cells/mL in 5 mL of ImmunoCult™-SF Macrophage Differentiation Medium with Human Recombinant M-CSF at 10 ng/ml in a T-25 flask at 37° C. in a 5% CO2 incubator for 4 days. The cells were centrifuged and resuspended in RPMI medium with 10% FBS and seeded into Eppendorf 96 well plates at 10^5 cells/well.
Neutrophil assay: Human peripheral neutrophils were extracted from Human […] using EasySep™ Direct Human Neutrophil Isolation Kit as per manufacturer's protocol. The isolated neutrophils were centrifuged and resuspended in RPMI medium with 10% FBS and G-CSF and seeded into Eppendorf 96 well plates at 10^5 cells/well.
The co-culture CFU assay involves the addition of 10^5 cells/well of SC5314 Candida albicans cells to wells containing 10^5 cells/well of primary immune cells with final concentration of hDectin1-Fc at […] in a 96 well plate. The assay was incubated for 1 hr at 37° C. in a 5% CO2 atmosphere incubator. Samples were taken from each well at the end of the incubation and diluted accordingly before plating on YPD agar plates. The colonies were counted the following day. Each assay was done thrice and the average taken.
To evaluate the capability of the hDectin1-Fc fusion protein in enhancing immune cell anti-candida function, 10^5 human primary immune cells were co-cultured with 10^5 Candida albicans in a 1 hr long assay incubated at 37° C. with varying concentrations of hDectin1-Fc from […]. The surviving Candida cells were diluted and plated and the colony forming units (CFU) used as a measure of fungicidal activity (FIG. 12). […]

Data set [2] deals with SC5314 Candida albicans. The experiment in a line: In vitro combination therapy checkerboard dilution assay (Amphotericin B & hDectin1-Fc) with human primary macrophages. The format is cell-based. As to conditions: between 0 μg/ml and 100 µg/ml hDectin1-Fc, 24 hours.
Experimental: Human peripheral blood CD14+ monocytes were cultured at 1×10^6 cells/mL in 5 mL of ImmunoCult™-SF Macrophage Differentiation Medium with Human Recombinant M-CSF at 50 ng/ml in a T-25 flask at 37° C. in a 5% CO2 incubator. On Day 4, 2.5 mL of fresh ImmunoCult™-SF Macrophage Differentiation Medium was added to the flask. On Day 6, M1 activation was initiated with the addition of 50 ng/mL IFN-γ. On Day 8, the macrophages were treated with ACCUTASE and scrapped from the flask. The cells were centrifuged and resuspended in RPMI medium with 10% FBS and seeded into 96 well plates at 10^5 cells/well. The co-culture assay involves the addition of 10^5 cells/well of SC5314 Candida albicans cells to wells containing 10^5 cells/well of human primary macrophages cells with final concentration of hDectin1-Fc at 0, 1, 10 or 100 g/ml and varying concentration of Amphotericin B in a checkerboard dilution assay format in a 96 well plate. The assay was incubated for 24 hr at 37° C. in a 5% CO2 atmosphere incubator and the MIC and MFC determined visual using a Nikon Eclipse Ti-E inverted microscope.
10′ Candida albicans cells and 10′ human primary macropahges were seeded per well in a checkerboard dilution assay of Amphotericin B with the respective concentration of hDectin1-Fc (0, 10, 100 μg/ml) and incubated for 24 hours at 37° C.
Details of data set [3]: species or system Balb/c mice. The settings on record: mouse, in vivo, ip. As to the method: 9 week old female Balb/c mice (InVivos, Singapore) were injected intraperitoneally with 0.5, 1, 2 or 4 mg hDectin1-Fc in groups of 3. Blood was sampled from the tail at time 0, 5, 10, 15, 30 mins and 1, 2, 4, 8 hours thereafter followed by daily sampling with Microvette® ([…], Nümbrecht, Germany) for 20 days. The respective blood samples were allowed to clot and centrifuged at 2000 g and the blood serum collected. The blood serum was diluted accordingly and the concentration of hDectin1-Fc was tested with Human IgG ELISA Antibody Pair Kit and developed with pNPP ELISA Substrate ([…] Technologies, Vancouver, Canada). The plates were read on PLATE reader and the data analysed for hDectin1-Fc pharmacokinetic parameters with open source Microsoft Excel add-in PKSolver (China Pharmaceutical University, Nanjing, China).
The pharmacokinetic parameters of hDectin1-Fc at different doses (4 mg, 2 mg, 1 mg and 0.5 mg) were determined by administering a single bolus intraperitoneal injection and sampling blood serum daily (FIG. 14). The daily concentration over 20 days was measured by ELISA and the results analysed with PKSolver to determine the pharmacokinetic parameters (Table 2). […] The lowest dose of 0.5 mg has a half-life and MRT lower than the 2 mg and 1 mg dose and its peak concentration (Cmax) is at 10 hours instead of 2 hours like the other doses. This observed outcome for the 0.5 mg dose is likely to arise from the slow transfer of hDectin1-Fc from the intraperitoneal space of the mouse into its bloodstream due to the lower concentration gradient and stronger role of excretion over distribution. The duration of the MRT and the half-life is a reflection of the presence of the protective effects of hDectin1-Fc in the body of the mice. The optimal dose with the longest MRT and half-life is approximately 1 mg. The general take away from the pharmacokinetic study are: (i) high doses result in rapid excretion of the drug, (ii) peak concentration occurs at 2 hours (iii) lower doses have a longer half-life and mean residence time appropriate for passive immunization.

Where two headings read alike, the source gives them in different places.

On to “hDectin1-Fc: soluble dimeric fusion protein: human Dectin-1 receptor polypeptide (aa 73-247) fused to human IgG1 Fc via hinge; SEQ ID NO: 5”, for which the “fungicidal activity (CFU)” value in the data set on SC5314 Candida albicans [1] (human NK cells) and with SC5314 Candida albicans [1] (human monocytes) was “did not demonstrate any appreciable fungicidal activity” each time. Further, the “reduction in CFU” value in the data set on SC5314 Candida albicans [1] (human primary macrophages) and in the data set with SC5314 Candida albicans [1] (human primary neutrophils) was around 50% in each case. In the data set on SC5314 Candida albicans [2], the “reduction in MFC of Amphotericin B” value is around 45%. The Cl/F is 0.0066 (μg)/(μg/ml)/h in data set [3] (0.5 mg), 0.0163 (μg)/(μg/ml)/h in data set [3] (1 mg), 0.0095 (μg)/(μg/ml)/h in data set [3] (2 mg) and 0.0314 (μg)/(μg/ml)/h in data set [3] (4 mg). For the same substance, the highest concentration (Cmax) in data set [3] (0.5 mg) stood at 330 µg/mL; in data set [3] (1 mg), 294 µg/mL; in data set [3] (2 mg), 1039 µg/mL. Besides, the Tmax turned out to be 10 h in data set [3] (0.5 mg), 2 h in data set [3] (1 mg), 2 h in data set [3] (2 mg) and 2 h in data set [3] (4 mg). Further, the Vz/F is given as 0.9495 (μg)/(μg/ml) in data set [3] (0.5 mg), 3.4254 (μg)/(μg/ml) in data set [3] (1 mg), 2.1489 (μg)/(μg/ml) in data set [3] (2 mg) and 3.5008 (μg)/(μg/ml) in data set [3] (4 mg). Moreover, the t½ is reported as 100 h in data set [3] (0.5 mg), 146 h in data set [3] (1 mg), 156 h in data set [3] (2 mg) and 77 h in data set [3] (4 mg).

For orientation: Cmax means the maximum level reached in the sampled fluid or tissue. In general, Tmax refers to the time at which the peak concentration occurs. A word on the t½: it is the time needed for the level to fall by half in the phase considered. Higher therefore signals slow loss.
